This is an account of results in PMC4148193, “Chromatin Insulator Factors Involved in Long-Range DNA Interactions and Their Role in the Folding of the Drosophila Genome” (PLoS Genetics, 2014).

As a reminder, the Kd is the constant that tells how readily two partners part at equilibrium. For orientation: Ki means the equilibrium dissociation constant of an inhibitor or competing ligand from its target.

The target of data set [1] is T1, Chromator (Drosophila, UniProt Q86BS3 1-926).
T1 sequence: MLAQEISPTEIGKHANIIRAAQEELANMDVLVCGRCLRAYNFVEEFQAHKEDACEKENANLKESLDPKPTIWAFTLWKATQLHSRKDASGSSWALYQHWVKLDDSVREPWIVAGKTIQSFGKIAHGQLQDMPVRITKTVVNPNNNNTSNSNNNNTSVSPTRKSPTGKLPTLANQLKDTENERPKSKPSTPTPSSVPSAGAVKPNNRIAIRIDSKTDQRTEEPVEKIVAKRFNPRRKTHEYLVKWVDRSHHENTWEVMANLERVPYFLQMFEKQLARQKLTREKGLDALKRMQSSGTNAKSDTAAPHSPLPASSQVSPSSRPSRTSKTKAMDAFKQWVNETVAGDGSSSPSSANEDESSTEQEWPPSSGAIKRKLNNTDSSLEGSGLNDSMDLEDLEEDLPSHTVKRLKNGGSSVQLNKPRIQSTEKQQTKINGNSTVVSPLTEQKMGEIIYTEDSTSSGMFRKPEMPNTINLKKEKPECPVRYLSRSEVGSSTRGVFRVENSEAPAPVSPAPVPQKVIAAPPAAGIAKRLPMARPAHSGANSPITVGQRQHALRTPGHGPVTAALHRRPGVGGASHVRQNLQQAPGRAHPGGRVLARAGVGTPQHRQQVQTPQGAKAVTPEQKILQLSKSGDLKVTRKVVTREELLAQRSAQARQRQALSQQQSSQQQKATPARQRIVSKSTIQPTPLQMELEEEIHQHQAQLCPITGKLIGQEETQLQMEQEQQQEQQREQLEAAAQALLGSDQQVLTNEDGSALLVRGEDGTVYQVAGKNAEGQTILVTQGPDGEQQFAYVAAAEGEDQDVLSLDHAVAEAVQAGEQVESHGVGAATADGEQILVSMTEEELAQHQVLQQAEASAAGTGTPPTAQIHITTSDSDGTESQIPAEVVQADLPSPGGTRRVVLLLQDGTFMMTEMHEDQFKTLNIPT
The experiment in a line: fluorescence anisotropy; Hill n=2±0.2; 20 uM ZnSO4; FA/FCS: 30 mM Tris/HCl pH 7.5, 100 mM NaCl, 20 uM ZnSO4, 5 mM mercaptoethanol, 0.01 mg/ml BSA, 0.004% Tween20, 2.5 nM DNA; EMSA: 150 mM NaCl, 30 mM Tris/HCl pH. The note with it: protein: recombinant; tags: N-term 6xHis; blunt. On the technique in general: Fluorescence polarisation rises when a labelled molecule tumbles more slowly, as on binding a larger partner.

The target in data set [2] is T2, CP190 (Drosophila, UniProt Q24478 1-1096).
T2 sequence: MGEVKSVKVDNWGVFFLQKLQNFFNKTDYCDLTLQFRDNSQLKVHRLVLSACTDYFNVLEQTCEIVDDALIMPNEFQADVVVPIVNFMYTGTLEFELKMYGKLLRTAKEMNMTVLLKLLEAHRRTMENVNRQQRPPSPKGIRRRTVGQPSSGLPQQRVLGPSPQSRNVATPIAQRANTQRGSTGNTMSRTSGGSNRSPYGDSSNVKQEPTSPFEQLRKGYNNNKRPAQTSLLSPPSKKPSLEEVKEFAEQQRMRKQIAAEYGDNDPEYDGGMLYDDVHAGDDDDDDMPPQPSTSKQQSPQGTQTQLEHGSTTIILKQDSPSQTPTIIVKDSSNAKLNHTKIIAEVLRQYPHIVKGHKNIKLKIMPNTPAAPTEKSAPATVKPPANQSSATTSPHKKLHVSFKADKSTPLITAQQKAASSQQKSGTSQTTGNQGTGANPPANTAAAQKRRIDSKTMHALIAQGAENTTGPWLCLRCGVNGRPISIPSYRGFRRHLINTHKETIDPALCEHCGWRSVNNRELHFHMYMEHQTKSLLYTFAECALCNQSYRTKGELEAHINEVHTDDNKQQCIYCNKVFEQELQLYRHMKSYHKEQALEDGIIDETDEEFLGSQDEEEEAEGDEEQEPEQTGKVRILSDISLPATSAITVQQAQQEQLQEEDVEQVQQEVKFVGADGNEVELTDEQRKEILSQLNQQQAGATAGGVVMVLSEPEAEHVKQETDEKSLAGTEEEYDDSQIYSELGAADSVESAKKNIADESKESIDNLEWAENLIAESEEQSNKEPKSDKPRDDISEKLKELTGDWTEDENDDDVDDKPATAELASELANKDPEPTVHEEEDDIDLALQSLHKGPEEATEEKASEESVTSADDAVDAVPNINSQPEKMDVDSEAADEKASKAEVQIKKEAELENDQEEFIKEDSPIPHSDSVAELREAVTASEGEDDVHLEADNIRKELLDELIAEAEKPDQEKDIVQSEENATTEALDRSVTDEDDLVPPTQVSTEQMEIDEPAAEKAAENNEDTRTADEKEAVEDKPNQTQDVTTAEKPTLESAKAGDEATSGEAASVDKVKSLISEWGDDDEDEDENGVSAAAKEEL
The experiment in a line: fluorescence anisotropy; Hill n=2±0.3; 20 uM ZnSO4; FA/FCS: 30 mM Tris/HCl pH 7.5, 100 mM NaCl, 20 uM ZnSO4, 5 mM mercaptoethanol, 0.01 mg/ml BSA, 0.004% Tween20, 2.5 nM DNA; EMSA: 150 mM NaCl, 30 mM Tris/HCl pH. Conditions: protein: recombinant; tags: N-term 6xHis; blunt.

The target in data set [3] is T3, BEAF32 (BEAF32B);Chromator (Drosophila;Drosophila, UniProt Q94513;Q86BS3 1-282;1-926, |).
T3 sequence 1: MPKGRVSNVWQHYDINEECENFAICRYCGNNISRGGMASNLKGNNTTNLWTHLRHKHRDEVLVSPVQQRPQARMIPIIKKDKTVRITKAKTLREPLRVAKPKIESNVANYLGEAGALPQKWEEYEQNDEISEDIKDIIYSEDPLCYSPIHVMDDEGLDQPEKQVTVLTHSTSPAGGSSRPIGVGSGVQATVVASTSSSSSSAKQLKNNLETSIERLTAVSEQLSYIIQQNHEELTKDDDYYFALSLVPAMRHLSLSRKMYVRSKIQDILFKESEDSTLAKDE
T3 sequence 2: T1 sequence
Description: FCS/PIE-FCCS; 800 nM BEAF32, 100 nM Chromator; cross-correlation 13±4%, 47±14% of complexes bridged; FA/FCS: 30 mM Tris/HCl pH 7.5, 100 mM NaCl, 20 uM ZnSO4, 5 mM mercaptoethanol, 0.01 mg/ml BSA, 0.004% Tween20, 2.5 nM DNA; EMSA: 150 mM NaCl, 30 mM Tris/HCl pH. The note with it: protein: recombinant;recombinant; tags: N-term MBP; C-term 6xHis;N-term 6xHis; blunt. For orientation: Mobility shift assays separate free from complexed probe on a gel.

Data set [4] deals with T1, Chromator. Description: competition; unlabeled DNAS vs 2.5 nM Cy3B-DNAS, 638 nM Chromator; FA/FCS: 30 mM Tris/HCl pH 7.5, 100 mM NaCl, 20 uM ZnSO4, 5 mM mercaptoethanol, 0.01 mg/ml BSA, 0.004% Tween20, 2.5 nM DNA; EMSA: 150 mM NaCl, 30 mM Tris/HCl pH. Conditions: protein: recombinant; tags: N-term 6xHis; blunt.

B1: DNAS (dsDNA)
DNA 1: AGAAGTCAGCGCGATAGCATCGATATTTTCGTGACACGCTTGTCATCCGATAGGTAGT
DNA 2: ACTACCTATCGGATGACAAGCGTGTCACGAAAATATCGATGCTATCGCGCTGACTTCT
As for B1, the figures for the Kd in data set [1] and in data set [2] were 0.36 ± 0.03 µM and 0.109 ± 0.005 µM, respectively. Also, the binding result in data set [3] was “binds”. Moreover, the Ki in data set [4] turned out to be 0.514 ± 0.36 µM.
